Source: patent US20240279345A1, “ALPHA 5 BETA 1 INTEGRIN BINDING AGENTS AND USES THEREOF” (PASITHEA THERAPEUTICS CORP., priority 2021, published 2024)
Substitutions are numbered along the chain they refer to.

B1: A-15B08 IgG4 Chimera (antibody, V domains shown)
VH: QVQLKESGPGLVAPSQSLSITCTISGFSLTSYGVHWVRQPPGKGLEWLVVIWSDGSTTYNSTLKSRLSISKDNSKSQVFFKMNSLQTDDTAMYYCARHYDYDGDWFAYWGQGTLVTVSA
VL: QIVLTQSPAIMSASLGERVTMTCTASSRVSSNSLHWYQQKPGSSPKLWIYSTSNLASGVPARFSGSGSGTSYSLTISSMEAEDAATYYCHQYLRSPPTFGGGTKLEIK
B2: C-14D12 IgG4 Chimera (antibody, V domains shown)
VH: QVQLKESGPDLVAPSQSLSITCTVSGFSLTDYGVHWVRQPPGKGLEWLVVIWSDGSTTYNSALKSRLSITKDTSKRQVFLKMNSLQTDDTAMYYCARHAPSFIRYGSRYDALDYWGQGTSVTVSS
VL: B1 VL with M21L, R28S, S30T, N32S, S33F, L93H
B3: A-14G08 (antibody, V domains shown)
VH: QVQLQQPGAELVKPGASVKLSCKASGYTFTIYWINWVKQRPGQGLEWIGKIYPGSISTDYNEKFKSKATLTVDTSSSTAYMQLSSLTSDDSAVYYCAITGTGGLAYWGQGTLVTVSA
VL: ENVLTQSPAIMSASLGEKVTMTCRASSSVNYMYWYQQKSDASPKLWIYFTSSLAPGVPGRFSGSGSGNSYSLTISTMEGEDAATYYCQQFTTSPFTFGSGTKLEIK
notes: mouse hybridoma antibody
B4: A-15H11 (antibody, V domains shown)
VH: B3 VH
VL: B3 VL
notes: mouse hybridoma antibody
B5: A-4G02 (antibody, V domains shown)
VH: B1 VH
VL: B1 VL
notes: mouse hybridoma antibody
B6: C-8G11 (antibody, V domains shown)
VH: B2 VH
VL: B1 VL with M21L, R28S, S30T, N32S, S33F, L93H
notes: mouse hybridoma antibody
B7: A-11G01 (antibody, V domains shown)
VH: QVQLKESGPGLVAPSQSLSITCTISGFSLTTYGVHWVRQPPGKGLEWLVVIWSDGSTTYNSALKSRLNITKDNSKSQVFLKMNSLQTDDTAMYYCVRHGGLLRRDAMDYWGQGTSVTVSS
VL: B1 VL with R28S, L34F, I49L
notes: mouse hybridoma antibody
B8: A-7D06 (antibody, V domains shown)
VH: B7 VH
VL: B1 VL with R28S, L34F, I49L
notes: mouse hybridoma antibody
B9: A-3A08 (antibody, V domains shown)
VH: B7 VH
VL: B1 VL with R28S, L34F, I49L
notes: mouse hybridoma antibody
B10: A-3A08 (antibody, V domains shown)
VH: B7 VH
VL: B1 VL with R28S, L34F, I49L
B11: A-15H11 (antibody, V domains shown)
VH: B3 VH
VL: B3 VL
notes: mouse hybridoma
B12: A-14G08 (antibody, V domains shown)
VH: B3 VH
VL: B3 VL
notes: mouse hybridoma
B13: A2-7A05 (antibody, V domains shown)
VH: B3 VH
VL: B3 VL
notes: mouse hybridoma antibody (supernatant, or purified by Protein A); also called antibody designated A2-7A05; A-7A05
B14: A2-7F01 (antibody, V domains shown)
VH: B3 VH with K50N, I56S, D59N, S66T, L104F
VL: B3 VL with T22S, G59T, Y70F, T76S, F90L, T92G, K102R
notes: mouse hybridoma antibody (supernatant, or purified by Protein A); also called antibody designated A2-7F01
B15: A2-8H11 (antibody, V domains shown)
VH: B7 VH
VL: B1 VL with R28S, L34F, I49L
notes: mouse hybridoma
B16: A-4G02 (antibody, V domains shown)
VH: B1 VH
VL: B1 VL
notes: mouse hybridoma
B17: A-15B08 (antibody, V domains shown)
VH: B1 VH
VL: B1 VL
notes: mouse hybridoma antibody (supernatant, or purified by Protein A); NST N-glycosylation site in CDRH2; also called antibody designated A-15B08
B18: A2-9A11 (antibody, V domains shown)
VH: B7 VH
VL: B1 VL with R28S, L34F, I49L
notes: mouse hybridoma
B19: A2-3B06 (antibody, V domains shown)
VH: B7 VH
VL: B1 VL with R28S, L34F, I49L
notes: mouse hybridoma antibody (supernatant, or purified by Protein A); also called antibody designated A2-3B06
B20: C-8G11 (antibody, V domains shown)
VH: B2 VH
VL: B1 VL with M21L, R28S, S30T, N32S, S33F, L93H
notes: mouse hybridoma
B21: A-3A08 (antibody, V domains shown)
VH: B7 VH
VL: B1 VL with R28S, L34F, I49L
notes: mouse hybridoma
B22: A-7D06 (antibody, V domains shown)
VH: B7 VH
VL: B1 VL with R28S, L34F, I49L
notes: mouse hybridoma
B23: C-14D12 (antibody, V domains shown)
VH: B2 VH
VL: B1 VL with M21L, R28S, S30T, N32S, S33F, L93H
notes: mouse hybridoma antibody (supernatant, or purified by Protein A); also called antibody designated C-14D12; C-14D2
B24: A-11G01 (antibody, V domains shown)
VH: B7 VH
VL: B1 VL with R28S, L34F, I49L
notes: mouse hybridoma
B25: A2-6C10 (antibody, V domains shown)
VH: B7 VH
VL: B1 VL with R28S, L34F, I49L
notes: mouse hybridoma
B26: A2-5D10 (antibody, V domains shown)
VH: B1 VH with F80L
VL: B1 VL with V3L, R28S, N32R, S33C, S64R, L93Y
notes: mouse hybridoma antibody (supernatant, or purified by Protein A); also called antibody designated A2-5D10

Target: α5β1 integrin on U87MG cells (human, UniProt P08648 42-1049; P05556 21-798)
Assay: cell-based or functional assay

| Molecule | Cell Counts (Curve Bottom) [cells] | Cell Counts (Curve Top) [cells] | % Inhibition [%] |
| --- | --- | --- | --- |
| IgG4 Isotype (antibody) | 32000 | 50000 |  |
| B1 | 4780 | 33800 | 86 |
| B2 | 8040 | 37200 | 78 |

Target: T1, purified recombinant human α5β1 integrin heterodimer, 6×His tagged (rh-α5β1); Acro Biosystems, cat. no. … (human, UniProt P08648 42-995; P05556 21-728)
T1 construct: bought recombinant heterodimer; also called rh-α5β1-6×His tagged protein; His-tagged-α5β1
T1 sequence (P08648 42-995 limits assumed, form in doubt, chain 1 of 2): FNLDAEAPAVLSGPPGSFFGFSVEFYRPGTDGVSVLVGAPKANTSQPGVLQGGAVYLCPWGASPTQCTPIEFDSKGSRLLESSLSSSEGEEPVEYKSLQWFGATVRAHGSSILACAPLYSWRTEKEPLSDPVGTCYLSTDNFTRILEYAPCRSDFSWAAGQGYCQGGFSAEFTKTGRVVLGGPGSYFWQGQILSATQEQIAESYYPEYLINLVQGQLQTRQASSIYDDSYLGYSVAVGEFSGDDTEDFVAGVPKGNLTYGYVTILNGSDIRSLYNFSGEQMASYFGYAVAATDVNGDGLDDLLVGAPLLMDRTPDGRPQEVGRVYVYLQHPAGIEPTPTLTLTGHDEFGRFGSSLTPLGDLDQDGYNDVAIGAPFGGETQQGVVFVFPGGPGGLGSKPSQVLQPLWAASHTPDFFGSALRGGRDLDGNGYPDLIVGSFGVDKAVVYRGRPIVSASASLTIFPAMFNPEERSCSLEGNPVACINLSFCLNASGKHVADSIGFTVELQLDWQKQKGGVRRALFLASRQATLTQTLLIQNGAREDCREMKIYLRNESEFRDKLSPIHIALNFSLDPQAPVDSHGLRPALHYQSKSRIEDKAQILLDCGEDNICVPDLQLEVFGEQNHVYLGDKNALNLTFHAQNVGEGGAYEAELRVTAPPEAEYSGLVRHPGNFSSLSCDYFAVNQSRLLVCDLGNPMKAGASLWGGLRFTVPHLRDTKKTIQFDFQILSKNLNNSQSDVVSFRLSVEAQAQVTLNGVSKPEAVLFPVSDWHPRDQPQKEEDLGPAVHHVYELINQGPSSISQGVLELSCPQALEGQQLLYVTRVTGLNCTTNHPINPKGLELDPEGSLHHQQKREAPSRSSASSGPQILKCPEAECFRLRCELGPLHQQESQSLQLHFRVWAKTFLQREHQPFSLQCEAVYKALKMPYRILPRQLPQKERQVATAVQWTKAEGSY
T1 sequence (P05556 21-728 limits assumed, form in doubt, chain 2 of 2): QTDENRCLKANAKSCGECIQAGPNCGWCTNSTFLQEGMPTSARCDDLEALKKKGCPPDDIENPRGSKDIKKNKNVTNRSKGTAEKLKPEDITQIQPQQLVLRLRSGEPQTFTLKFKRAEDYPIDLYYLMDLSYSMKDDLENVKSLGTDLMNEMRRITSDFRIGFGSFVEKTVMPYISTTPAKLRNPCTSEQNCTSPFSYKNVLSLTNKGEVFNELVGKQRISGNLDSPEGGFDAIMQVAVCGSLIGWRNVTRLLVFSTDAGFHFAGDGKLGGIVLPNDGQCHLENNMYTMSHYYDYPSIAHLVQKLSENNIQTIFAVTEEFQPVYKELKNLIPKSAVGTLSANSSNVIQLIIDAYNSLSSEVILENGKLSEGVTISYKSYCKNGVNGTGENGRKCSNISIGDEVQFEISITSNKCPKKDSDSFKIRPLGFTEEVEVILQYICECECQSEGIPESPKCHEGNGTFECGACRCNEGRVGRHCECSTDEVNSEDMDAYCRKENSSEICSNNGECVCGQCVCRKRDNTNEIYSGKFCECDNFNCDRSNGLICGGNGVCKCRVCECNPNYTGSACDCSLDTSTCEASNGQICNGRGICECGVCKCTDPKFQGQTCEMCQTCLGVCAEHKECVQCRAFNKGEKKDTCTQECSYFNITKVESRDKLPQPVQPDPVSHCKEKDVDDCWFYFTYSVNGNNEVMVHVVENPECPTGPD
Assay: BLI (Octet), supernatant mAb on anti-mouse IgG Fc sensor, 20 nM rh-α5β1
Description: Anti-Mouse IgG Fc biosensors were used to load each clone supernatant. Assay steps were as follows: Sensor Check (30s)-->Load Ab (700s)-->Quench (480s)-->Baseline(480s)-->Ab Assoc. (600s)-->Dissoc. (600s).

| Molecule | Kd [nM] | koff [s⁻¹] | kon [M⁻¹ s⁻¹] |
| --- | --- | --- | --- |
| B3 | 0.845 | 0.000198 | 234000 |
| B4 | 0.901 | 0.000193 | 215000 |
| B5 | 1.23 | 0.000396 | 321000 |
| B6 | 0.442 | 0.00012 | 271000 |
| B7 | 5.03 | 0.00132 | 261000 |
| B8 | 4.75 | 0.00128 | 270000 |
| B9 | 5.08 | 0.00124 | 244000 |

Target: T2, recombinant mouse α5β1 integrin (mouse, UniProt P11688 45-999; P09055 21-728)
T2 construct: bought recombinant heterodimer (R&D Systems cat. 7728-A5) coated on the plate; also called rm-α5β1
Assay: ELISA, coated integrin, supernatant 1:10
Procedure: Plates were washed 3 times with Wash Buffer (1× Tris Buffered Saline containing 0.05% Tween20), blocked with 2% BSA in 1×TBS (made from 10× Thermo Scientific Blocker BSA (10×) in TBS; Thermo Fisher Scientific, Waltham, MA, cat. no. 37520) for 2 hours at room temperature (RT) then incubated with hybridoma supernatants diluted 1:10 with Standard Diluent (2% BSA, 1×TBS, 0.05% Tween20). […] Absorbance 450 nm was measured.

| Molecule | Absorbance 450 nm [A450] |
| --- | --- |
| B10 | 0.671 |

Target: T3, α5β1 integrin on cells (PMA-activated K562 cells; U87MG cells) (human, UniProt P08648 42-1049; P05556 21-798)
T3 construct: Endogenous integrin of human cell lines; also called cellular α5β1 integrin; cell surface α5β1 integrin receptors
T3 sequence (P08648 42-1049 limits assumed, chain 1 of 2): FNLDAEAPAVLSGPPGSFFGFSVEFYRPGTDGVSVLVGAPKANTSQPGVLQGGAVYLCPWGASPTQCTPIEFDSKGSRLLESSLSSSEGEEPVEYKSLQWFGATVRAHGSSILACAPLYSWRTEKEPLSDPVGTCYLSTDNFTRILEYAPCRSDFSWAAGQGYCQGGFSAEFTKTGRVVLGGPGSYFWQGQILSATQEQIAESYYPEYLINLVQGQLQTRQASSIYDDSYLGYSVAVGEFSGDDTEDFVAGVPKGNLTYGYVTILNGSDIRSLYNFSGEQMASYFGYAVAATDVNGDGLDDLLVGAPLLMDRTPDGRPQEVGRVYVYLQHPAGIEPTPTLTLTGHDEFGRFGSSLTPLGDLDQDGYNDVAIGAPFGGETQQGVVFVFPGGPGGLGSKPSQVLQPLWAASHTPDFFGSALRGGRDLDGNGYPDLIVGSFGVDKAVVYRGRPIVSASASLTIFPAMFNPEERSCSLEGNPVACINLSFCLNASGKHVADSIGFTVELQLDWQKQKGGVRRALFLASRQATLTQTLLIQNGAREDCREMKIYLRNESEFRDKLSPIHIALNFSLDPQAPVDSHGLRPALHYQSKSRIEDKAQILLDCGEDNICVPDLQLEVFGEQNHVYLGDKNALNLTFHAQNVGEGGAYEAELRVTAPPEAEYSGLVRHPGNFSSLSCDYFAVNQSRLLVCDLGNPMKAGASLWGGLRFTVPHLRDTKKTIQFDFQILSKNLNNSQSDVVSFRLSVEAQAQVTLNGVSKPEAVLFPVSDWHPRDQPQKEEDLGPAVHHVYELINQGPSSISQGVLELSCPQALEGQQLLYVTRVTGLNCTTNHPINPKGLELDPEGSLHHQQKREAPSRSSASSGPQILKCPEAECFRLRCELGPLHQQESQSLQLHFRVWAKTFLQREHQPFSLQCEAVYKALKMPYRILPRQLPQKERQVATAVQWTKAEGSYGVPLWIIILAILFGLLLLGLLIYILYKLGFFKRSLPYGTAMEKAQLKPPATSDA
T3 sequence (P05556 21-798 limits assumed, chain 2 of 2): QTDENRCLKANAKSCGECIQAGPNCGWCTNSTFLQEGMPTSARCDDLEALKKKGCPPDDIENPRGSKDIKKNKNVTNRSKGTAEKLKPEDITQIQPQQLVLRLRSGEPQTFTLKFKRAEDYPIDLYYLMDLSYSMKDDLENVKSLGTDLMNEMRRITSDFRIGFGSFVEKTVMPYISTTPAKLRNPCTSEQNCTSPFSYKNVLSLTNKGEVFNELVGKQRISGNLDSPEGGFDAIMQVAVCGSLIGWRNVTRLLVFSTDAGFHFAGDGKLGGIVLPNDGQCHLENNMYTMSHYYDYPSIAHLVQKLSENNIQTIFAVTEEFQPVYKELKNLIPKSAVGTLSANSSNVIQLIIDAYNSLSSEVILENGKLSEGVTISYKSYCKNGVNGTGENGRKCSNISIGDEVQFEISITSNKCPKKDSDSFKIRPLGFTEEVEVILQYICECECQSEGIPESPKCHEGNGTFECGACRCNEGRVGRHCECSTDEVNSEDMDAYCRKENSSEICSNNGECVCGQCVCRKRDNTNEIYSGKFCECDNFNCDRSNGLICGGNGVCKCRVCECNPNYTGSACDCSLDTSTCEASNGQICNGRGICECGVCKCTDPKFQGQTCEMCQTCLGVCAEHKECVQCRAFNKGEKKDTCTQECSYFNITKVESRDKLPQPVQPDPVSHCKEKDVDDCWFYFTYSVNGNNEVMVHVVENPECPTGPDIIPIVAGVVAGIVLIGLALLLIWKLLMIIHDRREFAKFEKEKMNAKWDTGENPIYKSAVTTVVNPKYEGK
Assay: flow cytometry on PMA-activated K562 cells, hybridoma supernatant
Procedure: Four weeks later cells from spleens and draining lymph nodes were fused to create hybridomas. […] In short, hybridoma supernatants were incubated with the activated K562 cells for 20 minutes, washed, then incubated with a fluorescent conjugated detecting antibody for 20 minutes, washed, resuspended in 7-Aminoactinomycin D, and Mean Fluorescence Intensity (MFI) measured on a Guava cytometer (Luminex Corporation, Austin, TX 78727).

| Molecule | MFI |
| --- | --- |
| B11 | 6570 |
| B12 | 4210 |
| B13 | 5500 |
| B14 | 6260 |
| B15 | 4370 |
| B16 | 1980 |
| B17 | 1390 |
| B18 | 3400 |
| B19 | 2140 |
| B20 | 2690 |
| B21 | 1180 |
| B22 | 742 |
| B23 | 2020 |
| B24 | 1610 |
| B25 | 2120 |
| B26 | 1890 |
